Test results from publication PMC7691336.
Where “and” joins values, the source holds several entries; their conditions need not be identical. Equal entries are not always repeated.

Experiments:
[1] = target: cardiac ryanodine receptor (RyR2) V3599K, knock-in mouse heart (mouse (endogenous in cardiac homogenates)) (UniProt E9Q401); experiment: cross-linking; CaM-SANPAH at rising concentrations (to 1024 nM; also 3000) mixed with mouse cardiac homogenates (1 mg/mL) in 150 mmol/L KCl, 10 umol/L CaCl2, 20 mmol/L MES pH 6.8; 10 min binding, UV cross-linking, anti-CaM blot of the 550 kDa band; binding as ratio to the maximum; one Kd for each heart; hearts of sham-operated mice
[2] = target: cardiac ryanodine receptor (RyR2), wild type, mouse heart (mouse (endogenous in cardiac homogenates)) (UniProt E9Q401); experiment: as above
[3] = target: cardiac ryanodine receptor (RyR2) V3599K, knock-in mouse heart (mouse (endogenous in cardiac homogenates)) (UniProt E9Q401); experiment: cross-linking; CaM-SANPAH at rising concentrations (to 1024 nM; also 3000) mixed with mouse cardiac homogenates (1 mg/mL) in 150 mmol/L KCl, 10 umol/L CaCl2, 20 mmol/L MES pH 6.8; 10 min binding, UV cross-linking, anti-CaM blot of the 550 kDa band; binding as ratio to the maximum; one Kd for each heart; hearts 2 weeks after transverse aortic constriction (TAC 2W)
[4] = target: cardiac ryanodine receptor (RyR2), wild type, mouse heart (mouse (endogenous in cardiac homogenates)) (UniProt E9Q401); experiment: as above

“CaM-SANPAH conjugate (recombinant calmodulin) (from UniProt P0DP23 1-149) (natural protein)” was tested. Which Kd [1] did it give?
The Kd was 47.4 nM and 51.6 nM (2×) and 74.2 nM.

And the Kd [2]?
The Kd was 61.4 nM and 66.9 nM and 54.7 nM (2×).

And the Kd [3]?
Its Kd is 55.9 nM and 44.2 nM and 82.9 nM.

What about the Kd [4] of the same substance?
The Kd was 118 nM and 151 nM and 139 nM.
